Among the data in publication PMC7015924 are Kd values, retold here.

In the series the test system is His-SUMO-Piwi PAZ domain (Drosophila melanogaster). Briefly: ITC. Conditions: 2'-O-methyl at 3' end; ITC buffer not in material (PAZ purified in 10 mM Tris-HCl pH 8.0, 500 mM NaCl); cleavage assays 27 C, 17 h (bead/supernatant assay conditions not given) ….

Consider 8-mer RNA with 3' 2'-O-methyl, for which the Kd – broadly, the free concentration of one partner at which half of the binding sites on the other are occupied at equilibrium, for simple one-to-one binding – came to 4 µM.
